According to patent US8586538B2, “Method of treating a patient suffering from a bleeding disorder comprising administering an antibody against the A3-C1 of FVIII” (Stichting Sanquin Bloedvoorziening, priority 2002, dated 2013):

Target: T1, FVIII/FV^1811-1818 chimera (Homo sapiens, UniProt P00451, E1830S/F1835V/K1832Y/K1837H/T1831S)
T1 construct: FVIII/FV^1811-1818 light chain chimera and wild-type FVIII light chain were purified employing Q-Sepharose chromatography; made in house; host or cells: murine fibroblasts (C127) cells
T1 sequence (P00451 1668-2351 E1830S/T1831S/K1832Y/F1835V/K1837H limits assumed): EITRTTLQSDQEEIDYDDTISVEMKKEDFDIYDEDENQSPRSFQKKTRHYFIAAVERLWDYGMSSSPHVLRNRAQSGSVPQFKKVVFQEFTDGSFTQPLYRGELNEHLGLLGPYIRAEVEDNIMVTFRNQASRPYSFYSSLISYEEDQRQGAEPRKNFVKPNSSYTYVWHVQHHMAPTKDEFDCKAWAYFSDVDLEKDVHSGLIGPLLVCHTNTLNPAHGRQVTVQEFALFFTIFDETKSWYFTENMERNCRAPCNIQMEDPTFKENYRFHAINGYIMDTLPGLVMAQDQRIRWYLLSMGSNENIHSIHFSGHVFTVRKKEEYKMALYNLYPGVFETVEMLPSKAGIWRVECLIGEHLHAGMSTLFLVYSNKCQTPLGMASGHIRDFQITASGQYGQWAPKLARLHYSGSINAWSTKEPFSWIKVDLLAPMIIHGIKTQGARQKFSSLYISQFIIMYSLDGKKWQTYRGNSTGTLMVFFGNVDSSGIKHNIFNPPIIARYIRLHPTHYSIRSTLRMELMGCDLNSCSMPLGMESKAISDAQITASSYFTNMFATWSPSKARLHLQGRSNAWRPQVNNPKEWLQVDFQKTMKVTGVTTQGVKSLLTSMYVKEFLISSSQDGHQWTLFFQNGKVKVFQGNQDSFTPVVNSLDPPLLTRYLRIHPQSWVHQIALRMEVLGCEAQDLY
Test: SPR binding of scFv KM41 to FVIII/FV^1811-1818 light chain chimera
Conditions: scFv 40 nM
Procedure: FIG. 7. Binding of scFv KM41 to the FVIII/FV^1811-1818 light chain chimera. ScFv EL14 at a CM5 sensor chip (67 fmol/mm^2) was incubated with either the recombinant wild-type FVIII light chain or the recombinant FVIII/FV^1811-1818 chimera till a density of 20 fmol/mm^2, in 150 mM NaCl, 50 mM Tris (pH 7.4). ScFv KM41 (40 nM) was passed over two separate channels with immobilized intact FVIII light chain (I) or FVIII/FV^1811-1818 chimera (II), respectively. Response is indicated as Resonance Units (RU) and is corrected for nonspecific binding.
The kinetics of protein interactions was determined by surface plasmon resonance (SPR) analysis, employing a BIAcore™2000 biosensor system (Biacore AS, Uppsala, Sweden). […] Association of analyte was assessed in 150 mM NaCl, 2 mM CaCl2, 0.005% (v/v) Tween® 20, and 20 mM Hepes (pH 7.4) for 2 min, at a flow rate of 20 μl/min at 25° C. […] The association (kon) and dissociation (koff) rate constants were determined by using the BIAevaluation software 3.1 (Biacore AB, Uppsala, Sweden). […] Equilibrium dissociation constants (kd) were calculated from the ratio koff/kon. […]

- Binding of scFv to immobilized FVIII/FV^1811-1818 chimera: did not recognize
B1: scFv KM41: scFv antibody fragment directed against FVIII region Arg^1803-Lys^1818 (protein)
scFv: QVQLLQSAADVKKPGASVKVSCTASGYIFTSYDIDWVRQATGQGLEWMGWMNPNSGNAGFAQKFKGRLTLTRDTSTSTAYMELRRLESEDTAVYYCARSTPHSYSGSGLPPTSDSWGQGTLVTVSSGGGGSGGGGSGGGGSEIVLTQSPGTLSLSPGERATLSCRASQSVSSSFLGWYQQKPGQAPRLLIYGASSRATGIPDRFSGSGSGTDFTLTISRLEPEDFAVYYCQQYGISPLTFGGGTKLEIKRAAAEQKLISEEDLNGAAHHHHHH
